Target: acetylcholine receptor
Assay: SPR, AchR immobilized on CM5 chip, peptide 10 uM

First: RKLFCK [6mer-1-389]
Second: RKLQQR [6mer-1-390]
The Binding affinity (RU) of the first is higher: 125 RU for the first, 121 RU for the second.

Going from RRQRCK [6mer-1-391] to RRVQTR [6mer-1-392], the Binding affinity (RU) rises from 131 RU to 135 RU.

Compared with KRLYYK [6mer-1-393], KKVRRR [6mer-1-394] is higher in Binding affinity (RU): 148 RU for the first, 149 RU for the second.

First: KKRQTK [6mer-1-395]
Second: KRQIQK [6mer-1-396]
The Binding affinity (RU) of the first is lower: 125 RU for the first, 148 RU for the second.

First: KRLILR [6mer-1-397]
Second: KKQYYR [6mer-1-398]
The Binding affinity (RU) of the first is lower: 125 RU for the first, 137 RU for the second.

Compared with KRWILR [6mer-1-399], KRWQTK [6mer-1-400] is lower in Binding affinity (RU): 125 RU for the first, 123 RU for the second.

First: RRLYCR [6mer-1-401]
Second: KKKMFK [6mer-1-733]
The Binding affinity (RU) of the first is higher: 127 RU for the first, 21 RU for the second.

Going from RRTHER [6mer-1-734] to RKDKER [6mer-1-735], the Binding affinity (RU) falls from 21 RU to 19 RU.

First: KKATDK [6mer-1-736]
Second: RRKNAR [6mer-1-737]
The Binding affinity (RU) of the first is lower: 15 RU for the first, 27 RU for the second.

Compared with RKYHHR [6mer-1-738], RKCCEK [6mer-1-739] is higher in Binding affinity (RU): 25 RU for the first, 32 RU for the second.

First: RKDNKR [6mer-1-740]
Second: RKEAGR [6mer-1-741]
The Binding affinity (RU) of the first is higher: 26 RU for the first, 24 RU for the second.

RRFHWR [6mer-1-742] and KKTMVR [6mer-1-743] are the same in Binding affinity (RU): 14 RU for the first, 14 RU for the second.

Going from RKHEIK [6mer-1-744] to KKTMEK [6mer-1-745], the Binding affinity (RU) falls from 31 RU to 11 RU.

RKMSVK [6mer-1-746] and KKTMDR [6mer-1-747] are the same in Binding affinity (RU): 24 RU for the first, 24 RU for the second.

First: RKHNGR [6mer-1-748]
Second: RKPHWR [6mer-1-749]
The Binding affinity (RU) of the first is lower: 24 RU for the first, 33 RU for the second.

Compared with KRENIK [6mer-1-750], RRTNFK [6mer-1-751] is lower in Binding affinity (RU): 33 RU for the first, 27 RU for the second.

Compared with KRPTEK [6mer-1-752], KKDTHK [6mer-1-753] is lower in Binding affinity (RU): 16 RU for the first, 12 RU for the second.

Going from RKKKMK [6mer-1-754] to RRANMR [6mer-1-755], the Binding affinity (RU) rises from 24 RU to 25 RU.

Compared with RKAKMK [6mer-1-756], RKDNEK [6mer-1-757] is lower in Binding affinity (RU): 33 RU for the first, 26 RU for the second.

First: KKYHHR [6mer-1-758]
Second: RKMTWR [6mer-1-759]
The Binding affinity (RU) of the first is higher: 33 RU for the first, 23 RU for the second.

First: KRMMVR [6mer-1-760]
Second: RKETFR [6mer-1-761]
The Binding affinity (RU) of the first is lower: 21 RU for the first, 33 RU for the second.

First: KKTKAR [6mer-1-762]
Second: RRDCAK [6mer-1-763]
The Binding affinity (RU) of the first is higher: 13 RU for the first, 12 RU for the second.

First: RRNPFK [6mer-1-764]
Second: KRASPK [6mer-1-765]
The Binding affinity (RU) of the first is lower: 24 RU for the first, 25 RU for the second.

First: RKCTIR [6mer-1-766]
Second: KRTPDK [6mer-1-767]
The Binding affinity (RU) of the first is lower: 15 RU for the first, 18 RU for the second.

First: RKFEWK [6mer-1-768]
Second: RKMPVK [6mer-1-769]
The Binding affinity (RU) of the first is higher: 32 RU for the first, 14 RU for the second.

Going from RKTNAR [6mer-1-770] to KKMDIK [6mer-1-771], the Binding affinity (RU) falls from 29 RU to 17 RU.

Going from KRNCAK [6mer-1-772] to KRTEIR [6mer-1-773], the Binding affinity (RU) rises from 12 RU to 29 RU.

First: KKEMER [6mer-1-774]
Second: KKYPWR [6mer-1-775]
The Binding affinity (RU) of the first is higher: 21 RU for the first, 12 RU for the second.

Compared with KKTSIK [6mer-1-776], RRHNHR [6mer-1-777] is higher in Binding affinity (RU): 13 RU for the first, 16 RU for the second.

First: RRDDFR [6mer-1-778]
Second: RRPDAR [6mer-1-779]
The Binding affinity (RU) of the first is lower: 28 RU for the first, 30 RU for the second.

Going from KRKCWR [6mer-1-780] to RRHWDK [6mer-1-781], the Binding affinity (RU) falls from 24 RU to 16 RU.

First: KKNAWK [6mer-1-782]
Second: KKNEFK [6mer-1-783]
The Binding affinity (RU) of the first is higher: 30 RU for the first, 29 RU for the second.

Compared with KKFTPK [6mer-1-784], KKTCER [6mer-1-785] is lower in Binding affinity (RU): 33 RU for the first, 19 RU for the second.

First: KRIKEK [6mer-1-786]
Second: KKESIK [6mer-1-787]
The Binding affinity (RU) of the first is higher: 26 RU for the first, 16 RU for the second.

First: RKIPKK [6mer-1-788]
Second: KRMMPK [6mer-1-789]
The Binding affinity (RU) of the first is higher: 22 RU for the first, 19 RU for the second.

Going from KKPNPK [6mer-1-790] to RKPDDK [6mer-1-791], the Binding affinity (RU) rises from 12 RU to 13 RU.

Compared with KRKDKK [6mer-1-792], KKTPNR [6mer-1-793] is higher in Binding affinity (RU): 30 RU for the first, 31 RU for the second.

First: RKYEPK [6mer-1-794]
Second: KKCHMR [6mer-1-795]
The Binding affinity (RU) of the first is lower: 11 RU for the first, 12 RU for the second.

First: RRHAFK [6mer-1-796]
Second: RRAWNK [6mer-1-797]
The Binding affinity (RU) of the first is higher: 28 RU for the first, 22 RU for the second.

From patent US20250011363A1, “OPTIMIZED SHORTENED PEPTIDE THAT BINDS TO ACETYLCHOLINE RECEPTOR, AND USE THEREOF” (SKINMED CO., LTD., priority 2021, published 2025)
